Experimental data from EP2908837B1 (Vect-Horus, dated 2014).

How the values were obtained:
[1] = target: mouse LDLR (in vivo, wild-type against LDLR -/- mice) (mouse, UniProt P35951 22-862); assay: cell-based or functional assay
[2] = target: T1, Fc alone (human Fc fragment of an IgG1 antibody) (human, UniProt P01857-1 104-330 = IgG part, limits assumed); assay: pulse-chase immunocytochemistry on CHO-hLDLR-GFP cells, anti-human Fc antibody Alexa 594
T1 construct: domain: Fc fragment; Negative control

mouse LDLR (in vivo, wild-type against LDLR -/- mice), sequence (P35951 22-862): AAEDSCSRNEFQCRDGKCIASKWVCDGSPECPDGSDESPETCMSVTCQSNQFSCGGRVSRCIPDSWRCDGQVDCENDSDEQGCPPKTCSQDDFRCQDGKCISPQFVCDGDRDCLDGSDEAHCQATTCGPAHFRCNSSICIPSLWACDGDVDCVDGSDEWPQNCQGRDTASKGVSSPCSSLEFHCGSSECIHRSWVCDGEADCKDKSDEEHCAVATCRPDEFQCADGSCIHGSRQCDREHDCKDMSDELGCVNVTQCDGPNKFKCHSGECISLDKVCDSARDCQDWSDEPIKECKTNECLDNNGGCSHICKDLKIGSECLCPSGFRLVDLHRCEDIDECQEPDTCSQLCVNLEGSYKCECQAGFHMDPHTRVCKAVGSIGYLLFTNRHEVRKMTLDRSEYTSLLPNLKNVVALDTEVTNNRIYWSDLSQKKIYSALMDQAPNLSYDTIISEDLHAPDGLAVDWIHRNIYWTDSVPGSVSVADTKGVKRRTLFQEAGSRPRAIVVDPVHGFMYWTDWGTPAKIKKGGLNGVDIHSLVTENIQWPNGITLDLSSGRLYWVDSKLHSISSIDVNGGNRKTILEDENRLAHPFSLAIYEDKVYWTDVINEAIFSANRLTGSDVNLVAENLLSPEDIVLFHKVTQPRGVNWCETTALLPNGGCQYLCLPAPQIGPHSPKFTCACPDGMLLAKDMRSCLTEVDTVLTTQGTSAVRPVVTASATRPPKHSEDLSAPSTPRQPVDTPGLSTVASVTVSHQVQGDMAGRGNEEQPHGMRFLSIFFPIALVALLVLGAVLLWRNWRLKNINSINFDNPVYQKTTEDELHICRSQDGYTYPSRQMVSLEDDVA

B1: peptide SEQ ID NO: 1, (D)-Cys-Met-Thz-Arg-Leu-Arg-Gly-Pen (peptide)
peptide: XMXRLRGX
modifications: (D)-Cys at 1, Thz (thiazolidine-4-carboxylic acid) at 3, Pen (penicillamine) at 8; cyclised by a disulfide bridge
decrease in peptide concentration in the adrenal glands of LDLR-/- (KO) mice compared to wild-type mice, tritium-labelled peptide, 10 min after i.v. injection [1]: ~3.4 fold
decrease in peptide concentration in the intestine of LDLR-/- (KO) mice compared to wild-type mice, tritium-labelled peptide, 10 min after i.v. injection [1]: ~3.6 fold
decrease in peptide concentration in the liver of LDLR-/- (KO) mice compared to wild-type mice, tritium-labelled peptide, 10 min after i.v. injection [1]: ~4 fold

B2: hLDLR fused to GFP, on CHO-hLDLR-GFP cells (receptor)
chain: not shown
notes: whole, on cells; also called CHO-LDLR-GFP; not shown: GFP fused in the C-term position
binding result [2]: no binding (tested: 5 nM)
